Data: patent publication US20080263689A1 (GARVAN INSTITUTE OF MEDICAL RESEARCH, published 2008)

Molecular target: T1, insulin receptor (IR) of mouse primary hepatocytes (mouse, UniProt P15208 28-748; P15208 753-1372)
T1 construct: whole, on cells; Endogenous receptor on intact primary hepatocytes from wild type or PKCε-/- mice; in cell lysates for the co-precipitation
Assay: co-precipitation from hepatocytes of wild type mice; data not shown

T1 sequence (P15208 28-748 limits assumed, chain 1 of 2): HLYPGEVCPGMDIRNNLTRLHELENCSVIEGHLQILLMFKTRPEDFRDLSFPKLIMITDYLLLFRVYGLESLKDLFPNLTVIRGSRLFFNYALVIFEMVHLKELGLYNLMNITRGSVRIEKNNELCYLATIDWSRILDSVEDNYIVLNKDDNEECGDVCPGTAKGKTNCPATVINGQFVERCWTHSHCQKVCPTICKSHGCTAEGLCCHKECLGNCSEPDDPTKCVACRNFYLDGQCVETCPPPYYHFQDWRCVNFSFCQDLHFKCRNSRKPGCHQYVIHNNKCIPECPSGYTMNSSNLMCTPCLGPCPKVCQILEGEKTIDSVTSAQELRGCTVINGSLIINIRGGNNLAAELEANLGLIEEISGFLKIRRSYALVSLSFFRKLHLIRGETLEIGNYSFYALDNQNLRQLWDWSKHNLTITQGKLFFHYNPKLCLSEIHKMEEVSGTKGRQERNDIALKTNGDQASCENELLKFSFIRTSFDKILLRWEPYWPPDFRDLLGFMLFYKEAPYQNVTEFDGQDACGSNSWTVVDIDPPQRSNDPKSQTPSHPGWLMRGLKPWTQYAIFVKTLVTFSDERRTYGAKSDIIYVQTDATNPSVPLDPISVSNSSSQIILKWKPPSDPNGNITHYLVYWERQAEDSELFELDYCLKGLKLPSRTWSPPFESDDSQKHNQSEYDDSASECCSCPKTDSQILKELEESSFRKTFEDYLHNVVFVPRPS
T1 sequence (P15208 753-1372 limits assumed, chain 2 of 2): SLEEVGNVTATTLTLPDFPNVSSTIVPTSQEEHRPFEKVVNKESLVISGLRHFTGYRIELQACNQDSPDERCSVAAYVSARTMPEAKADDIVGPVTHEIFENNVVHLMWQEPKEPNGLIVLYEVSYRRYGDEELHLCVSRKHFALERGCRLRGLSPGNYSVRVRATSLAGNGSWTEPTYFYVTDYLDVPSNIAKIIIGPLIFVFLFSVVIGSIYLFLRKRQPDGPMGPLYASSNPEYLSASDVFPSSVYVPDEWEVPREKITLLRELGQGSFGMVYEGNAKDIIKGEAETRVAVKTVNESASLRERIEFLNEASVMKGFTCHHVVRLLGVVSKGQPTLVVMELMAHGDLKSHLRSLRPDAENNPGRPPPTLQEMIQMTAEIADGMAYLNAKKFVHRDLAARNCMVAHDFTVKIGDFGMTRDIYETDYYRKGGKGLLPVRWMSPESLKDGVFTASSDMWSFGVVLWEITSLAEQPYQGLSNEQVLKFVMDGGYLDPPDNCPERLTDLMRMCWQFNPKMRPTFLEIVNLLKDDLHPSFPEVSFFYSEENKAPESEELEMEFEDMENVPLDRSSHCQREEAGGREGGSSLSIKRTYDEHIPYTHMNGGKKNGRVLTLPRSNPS

B1: protein kinase C epsilon (PKCε), murine (enzyme)
chain: MVVFNGLLKIKICEAVSLKPTAWSLRHAVGPRPQTFLLDPYIALNVDDSRIGQTATKQKTNSPAWHDEFVTDVCNGRKIELAVFHDAPIGYDDFVANCTIQFEELLQNGSRHFEDWIDLEPEGKVYVIIDLSGSSGEAPKDNEERVFRERMRPRKRQGAVRRRVHQVNGHKFMATYLRQPTYCSHCRDFIWGVIGKQGYQCQVCTCVVHKRCHELIITKCAGLKKQETPDEVGSQRFSVNMPHKFGIHNYKVPTFCDHCGSLLWGLLRQGLQCKVCKMNVHRRCETNVAPNCGVDARGIAKVLADLGVTPDKITNSGQRRKKLAAGAESPQPASGNSPSEDDRSKSAPTSPCDQELKELENNIRKALSFDNRGEEHRASSATDGQLASPGENGEVRPGQAKRLGLDEFNFIKVLGKGSFGKVMLAELKGKDEVYAVKVLKKDVILQDDDVDCTMTEKRILALARKHPYLTQLYCCFQTKDRLFFVMEYVNGGDLMFQIQRSRKFDEPRSRFYAAEVTSALMFLHQHGVIYRDLKLDNILLDAEGHCKLADFGMCKEGIMNGVTTTTFCGTPDYIAPEILQELEYGPSVDWWALGVLMYEMMAGQPPFEADNEDDLFESILHDDVLYPVWLSKEAVSILKAFMTKNPHKRLGCVAAQNGEDAIKQHPFFKEIDWVLLEQKKIKPPFKPRIKTKRDVNNFDQDFTREEPILTLVDEAIIKQINQEEFKGFSYFGEDLMP
notes: Endogenous PKCε in hepatocytes of wild type mice
Does B1 bind?
Result: no binding
